Test results taken from article PMC9932110, “RanBP9 controls the oligomeric state of CTLH complex assemblies” (The Journal of Biological Chemistry, 2023).
“And” between values parts separate entries of the source, which are not always exact repeats. Identical values can stand only once.

T1: Wdr26 (mouse, UniProt Q8C6G8 1-641)
T1 chain: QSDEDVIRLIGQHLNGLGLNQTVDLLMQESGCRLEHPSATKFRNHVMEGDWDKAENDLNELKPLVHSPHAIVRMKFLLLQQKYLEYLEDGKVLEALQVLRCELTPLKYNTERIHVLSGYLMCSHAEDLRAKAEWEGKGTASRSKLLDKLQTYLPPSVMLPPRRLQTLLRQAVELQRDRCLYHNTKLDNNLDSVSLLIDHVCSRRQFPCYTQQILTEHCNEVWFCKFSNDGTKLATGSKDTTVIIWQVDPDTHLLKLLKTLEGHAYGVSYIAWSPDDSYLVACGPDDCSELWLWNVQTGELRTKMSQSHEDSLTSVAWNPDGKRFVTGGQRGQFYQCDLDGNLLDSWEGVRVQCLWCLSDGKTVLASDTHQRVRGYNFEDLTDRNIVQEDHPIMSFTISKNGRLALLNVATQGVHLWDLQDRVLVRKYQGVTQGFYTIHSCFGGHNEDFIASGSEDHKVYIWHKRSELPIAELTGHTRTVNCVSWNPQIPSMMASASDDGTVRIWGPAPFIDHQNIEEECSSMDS


Experiments:
Wdr26 [1] = target: T1, Wdr26; assay: SEC-MALS; Wdr26 alone, dilution series from four batches, Superose 6 10/300 GL; molar mass at the peak against peak concentration, one-site model; dimer to higher oligomers; saturation not reached; conditions: both partners purified
Wdr26 [2] = target: T1, Wdr26; assay: SEC-MALS; Superose 6 10/300 GL, SEC buffer; molar mass of single proteins and of complexes assembled from purified proteins; conditions: both partners purified
[3] = target: the molecule itself; assay: as above

Kd (Wdr26 [1]) | stoichiometry N (Wdr26 [1]) | stoichiometry N (Wdr26 [2]) | Binder | stoichiometry N [3]
10 µM | ≥ 8 and 12 | 2 | Wdr26 (natural protein, Supplement: residues 1-101 deleted. Paper gives 625 residues, matching E0CYH4 (CTLH 136-195) rather than the 641-aa Q8C6G8 canonical form (CTLH 136-211). Forms a concentration-dependent oligomer …) QSDEDVIRLIGQHLNGLGLNQTVDLLMQESGCRLEHPSATKFRNHVMEGDWDKAENDLNELKPLVHSPHAIVRMKFLLLQQKYLEYLEDGKVLEALQVLRCELTPLKYNTERIHVLSGYLMCSHAEDLRAKAEWEGKGTASRSKLLDKLQTYLPPSVMLPPRRLQTLLRQAVELQRDRCLYHNTKLDNNLDSVSLLIDHVCSRRQFPCYTQQILTEHCNEVWFCKFSNDGTKLATGSKDTTVIIWQVDPDTHLLKLLKTLEGHAYGVSYIAWSPDDSYLVACGPDDCSELWLWNVQTGELRTKMSQSHEDSLTSVAWNPDGKRFVTGGQRGQFYQCDLDGNLLDSWEGVRVQCLWCLSDGKTVLASDTHQRVRGYNFEDLTDRNIVQEDHPIMSFTISKNGRLALLNVATQGVHLWDLQDRVLVRKYQGVTQGFYTIHSCFGGHNEDFIASGSEDHKVYIWHKRSELPIAELTGHTRTVNCVSWNPQIPSMMASASDDGTVRIWGPAPFIDHQNIEEECSSMDS | 
 |  |  | muskelin (natural protein, rat, UniProt Q99PV3 1-735, looked up, muskelin, rat, 735 residues) MAAGGAVAAAPECRLLPYALHKWSSFSSTYLPENILVDKPNDQSSRWSSESNYPPQYLILKLERPAIVQNITFGKYEKTHVCNLKKFKVFGGMNEENMTELLSSGLKNDYNKETFTLKHKIDEQMFPCRFIKIVPLLSWGPSFNFSIWYVELSGIDDPDIVQPCLNWYSKYREQEAIRLCLKHFRQHNYTEAFESLQKKTKIALEHPMLTDMHDKLVLKGDFDACEELIEKAVNDGLFNQYISQQEYKPRWSQIIPKSTKGDGEDNRPGMRGGHQMVIDVQTETVYLFGGWDGTQDLADFWAYSVKENQWTCISRDTEKENGPSARSCHKMCIDIQRRQIYTLGRYLDSSVRNSKSLKSDFYRYDIDTNTWMLLSEDTAADGGPKLVFDHQMCMDSEKHMIYTFGGRILTCNGSVDDSRASEPQFSGLFAFNCQCQTWKLLREDSCNAGPEDIQSRIGHCMLFHSKNRCLYVFGGQRSKTYLNDFFSYDVDSDHVDIISDGTKKDSGMVPMTGFTQRATIDPELNEIHVLSGLSKDKEKREENVRNSFWIYDIVRNSWSCVYKNDQAAKENLSKSLQEEEPCPRFAHQLVYDELHKVHYLFGGNPGKSCSPKMRLDDFWSLKLCRPSKDYLLRHCKYLIRKHRFEEKAQMDPLSALKYLQNDLYITVDHSDPEETKEFQLLASALFKSGSDFTALGFSDVDHTYAQRTQLFDTLVNFFPDSMTPPKGNLVDLITL | 4
